From PMC7610862 (Nature microbiology, 2021)

B2: FlgF (natural protein, Salmonella enterica serovar Typhimurium, UniProt P16323 1-251, looked up)
chain: MDHAIYTAMGAASQTLNQQAVTASNLANASTPGFRAQLNALRAVPVDGLSLATRTLVTASTPGADMTPGQLDYTSRPLDVALQQDGWLVVQAADGAEGYTRNGNIQVGPTGQLTIQGHPVIGEGGPITVPEGSEITIAADGTISALNPGDPPNTVAPVGRLKLVKAEGNEVQRSDDGLFRLTAEAQAERGAVLAADPSIRIMSGVLEGSNVKPVEAMTDMIANARRFEMQMKVITSVDENEGRANQLLSMS
B3: FlgG (natural protein, Salmonella enterica serovar Typhimurium, UniProt P0A1J3 1-260, looked up)
chain: MISSLWIAKTGLDAQQTNMDVIANNLANVSTNGFKRQRAVFEDLLYQTIRQPGAQSSEQTTLPSGLQIGTGVRPVATERLHSQGNLSQTNNSKDVAIKGQGFFQVMLPDGTSAYTRDGSFQVDQNGQLVTAGGFQVQPAITIPANALSITIGRDGVVSVTQQGQAAPVQVGQLNLTTFMNDTGLESIGENLYIETQSSGAPNESTPGLNGAGLLYQGYVETSNVNVAEELVNMIQVQRAYEINSKAVSTTDQMLQKLTQL
B7: FlgI (natural protein, Salmonella enterica serovar Typhimurium, UniProt P15930 20-365, looked up)
chain: ERIRDLTSVQGVRENSLIGYGLVVGLDGTGDQTTQTPFTTQTLNNMLSQLGITVPTGTNMQLKNVAAVMVTASYPPFARQGQTIDVVVSSMGNAKSLRGGTLLMTPLKGVDSQVYALAQGNILVGGAGASAGGSSVQVNQLNGGRITNGAIIERELPTQFGAGNTINLQLNDEDFTMAQQITDAINRARGYGSATALDARTVQVRVPSGNSSQVRFLADIQNMEVNVTPQDAKVVINSRTGSVVMNREVTLDSCAVAQGNLSVTVNRQLNVNQPNTPFGGGQTVVTPQTQIDLRQSGGSLQSVRSSANLNSVVRALNALGATPMDLMSILQSMQSAGCLRAKLEII
B8: FlgB (natural protein, Salmonella enterica serovar Typhimurium, UniProt P16437 1-138, looked up)
chain: MLDRLDAALRFQQEALNLRAQRQEILAANIANADTPGYQARDIDFASELKKVMVRGREETGGVALTLTSSHHIPAQAVSSPAVDLLYRVPDQPSLDGNTVDMDRERTQFADNSLKYQMGLTVLGSQLKGMMNVLQGGN
B9: FliF (natural protein, Salmonella enterica serovar Typhimurium, UniProt P15928 1-560, looked up)
chain: MSATASTATQPKPLEWLNRLRANPRIPLIVAGSAAVAIVVAMVLWAKTPDYRTLFSNLSDQDGGAIVAQLTQMNIPYRFANGSGAIEVPADKVHELRLRLAQQGLPKGGAVGFELLDQEKFGISQFSEQVNYQRALEGELARTIETLGPVKSARVHLAMPKPSLFVREQKSPSASVTVTLEPGRALDEGQISAVVHLVSSAVAGLPPGNVTLVDQSGHLLTQSNTSGRDLNDAQLKFANDVESRIQRRIEAILSPIVGNGNVHAQVTAQLDFANKEQTEEHYSPNGDASKATLRSRQLNISEQVGAGYPGGVPGALSNQPAPPNEAPIATPPTNQQNAQNTPQTSTSTNSNSAGPRSTQRNETSNYEVDRTIRHTKMNVGDIERLSVAVVVNYKTLADGKPLPLTADQMKQIEDLTREAMGFSDKRGDTLNVVNSPFSAVDNTGGELPFWQQQSFIDQLLAAGRWLLVLVVAWILWRKAVRPQLTRRVEEAKAAQEQAQVRQETEEAVEVRLSKDEQLQQRRANQRLGAEVMSQRIREMSDNDPRVVALVIRQWMSNDHE

Legend:
Assay in all cases: cryo-EM structure
cryo-EM structure = target: the molecule itself
FlgI = target: B7
FliF = target: B9
FlgG = target: B3
FlgF = target: B2
FlgB = target: B8
FliP = target: T1, FliP (Salmonella enterica serovar Typhimurium, UniProt P54700 22-245)
T1 sequence (looked up): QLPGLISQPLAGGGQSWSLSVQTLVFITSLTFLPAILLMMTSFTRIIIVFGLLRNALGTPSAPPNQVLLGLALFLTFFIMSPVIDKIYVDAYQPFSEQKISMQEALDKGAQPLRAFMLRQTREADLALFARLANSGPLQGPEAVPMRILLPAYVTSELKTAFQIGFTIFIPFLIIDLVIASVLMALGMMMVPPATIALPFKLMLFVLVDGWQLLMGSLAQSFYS

B1: FlgH (natural protein, Salmonella enterica serovar Typhimurium, UniProt P0A1N8 22-232, looked up)
chain: CAWIPAKPLVQGATTAQPIPGPVPVANGSIFQSAQPINYGYQPLFEDRRPRNIGDTLTIVLQENVSASKSSSANASRDGKTSFGFDTVPRYLQGLFGNSRADMEASGGNSFNGKGGANASNTFSGTLTVTVDQVLANGNLHVVGEKQIAINQGTEFIRFSGVVNPRTISGSNSVPSTQVADARIEYVGNGYINEAQNMGWLQRFFLNLSPM
modifications: lipidated N-terminal Cys (3 lipid moieties; diacylglycerol attached to the sidechain)
cryo-EM structure
  stoichiometry N: 26 copies
FlgI
  binding result: binds

## B2
cryo-EM structure
  stoichiometry N: 5 copies
FliF
  binding result: binds
FlgG
  binding result: binds

## B3
cryo-EM structure
  stoichiometry N: 24 copies
FlgI
  binding result: binds

B4: FlgD (natural protein, Salmonella enterica serovar Typhimurium, UniProt P0A1I9 1-232, looked up)
chain: MSIAVNMNDPTNTGVKTTTGSGSMTGSNAADLQSSFLTLLVAQLKNQDPTNPLQNNELTTQLAQISTVSGIEKLNTTLGAISGQIDNSQSLQATTLIGHGVMVPGTTILAGKGAEEGAVTSTTPFGVELQQPADKVTATITDKDGRVVRTLEIGELRAGVHTFTWDGKQTDGTTVPNGSYNIAITASNGGTQLVAQPLQFALVQGVTKGSNGNLLDLGTYGTTTLDEVRQII
cryo-EM structure
  stoichiometry N: 5
FlgG
  binding result: binds

B5: FlgC (natural protein, Salmonella enterica serovar Typhimurium, UniProt P0A1I7 1-134, looked up)
chain: MALLNIFDIAGSALAAQSKRLNVAASNLANADSVTGPDGQPYRAKQVVFQVDAAPGQATGGVKVASVIESQAPEKLVYEPGNPLADANGYVKMPNVDVVGEMVNTMSASRSYQANIEVLNTVKSMMLKTLTLGQ
cryo-EM structure
  stoichiometry N: 6 copies
FlgF
  binding result: binds
FliF
  binding result: binds
FlgB
  binding result: binds

B6: FliE (natural protein, Salmonella enterica serovar Typhimurium, UniProt P26462 1-104, looked up)
chain: MAAIQGIEGVISQLQATAMAARGQDTHSQSTVSFAGQLHAALDRISDRQAAARVQAEKFTLGEPGIALNDVMADMQKASVSMQMGIQVRNKLVAAYQEVMSMQV
FliP
  binding result: binds
FlgB
  binding result: binds

## B7
cryo-EM structure
  stoichiometry N: 26 copies

## B8
cryo-EM structure
  stoichiometry N: 5 copies
FliF
  binding result: binds

## B9
cryo-EM structure
  stoichiometry N: 34
